Reference: paper PMC9978035, “Human uridine 5′-monophosphate synthase stores metabolic potential in inactive biomolecular condensates” (The Journal of Biological Chemistry, 2023)

Assays:
[1] = target: the molecule itself; assay: SEC; 20 mM Tris pH 7.5, 100 mM NaCl; SEPAX SRT-10-SEC-300 or Superdex 200 columns; MW standards run under the same conditions; also run with 500 μM orotate
[2] = target: the molecule itself; assay: cross-linking; SEC fractions in 50.0 mM Na3PO4 pH 8.0, 100.0 mM NaCl, 0.004% glutaraldehyde, quenched at time points up to 2 h, SDS-PAGE
[3] = target: the molecule itself; assay: AUC; sedimentation at 38,000 rpm, absorbance at 280 nm, 1 mg/ml (WT) or 1.5 mg/ml (mutants) and 1:5 dilutions, SEDFIT continuous sedimentation profiles

B1: Human uridine 5′-monophosphate synthase (HsUMPS), wildtype (enzyme, UniProt P11172 1-480, looked up)
chain: MAVARAALGPLVTGLYDVQAFKFGDFVLKSGLSSPIYIDLRGIVSRPRLLSQVADILFQTAQNAGISFDTVCGVPYTALPLATVICSTNQIPMLIRRKETKDYGTKRLVEGTINPGETCLIIEDVVTSGSSVLETVEVLQKEGLKVTDAIVLLDREQGGKDKLQAHGIRLHSVCTLSKMLEILEQQKKVDAETVGRVKRFIQENVFVAANHNGSPLSIKEAPKELSFGARAELPRIHPVASKLLRLMQKKETNLCLSADVSLARELLQLADALGPSICMLKTHVDILNDFTLDVMKELITLAKCHEFLIFEDRKFADIGNTVKKQYEGGIFKIASWADLVNAHVVPGSGVVKGLQEVGLPLHRGCLLIAEMSSTGSLATGDYTRAAVRMAEEHSEFVVGFISGSRVSMKPEFLHLTPGVQLEAGGDNLGQQYNSPQEVIGKRGSDIIIVGRGIISAADRLEAAEMYRKAAWEAYLSRLGV
notes: Human UMP synthase (UMPS), bifunctional enzyme with OPRT and OMPDC domains; codon-optimized human UMPS in pDB-His-MBP between NdeI and XhoI; expected protomer MW 52 kDa; both domains are present and the expected protomer mass of 52 kDa fits the whole protein (surmise); also called human UMPS; UMP synthase; source: E. coli BL21(DE3), purified (amylose resin, on-column TEV cleavage, Ni-NTA, SEC or …)
- stoichiometry N [1]: 2

B2: HsUMPS D312N (OMPDC active site mutant) (enzyme, human, UniProt P11172 1-480, looked up)
chain: MAVARAALGPLVTGLYDVQAFKFGDFVLKSGLSSPIYIDLRGIVSRPRLLSQVADILFQTAQNAGISFDTVCGVPYTALPLATVICSTNQIPMLIRRKETKDYGTKRLVEGTINPGETCLIIEDVVTSGSSVLETVEVLQKEGLKVTDAIVLLDREQGGKDKLQAHGIRLHSVCTLSKMLEILEQQKKVDAETVGRVKRFIQENVFVAANHNGSPLSIKEAPKELSFGARAELPRIHPVASKLLRLMQKKETNLCLSADVSLARELLQLADALGPSICMLKTHVDILNDFTLDVMKELITLAKCHEFLIFENRKFADIGNTVKKQYEGGIFKIASWADLVNAHVVPGSGVVKGLQEVGLPLHRGCLLIAEMSSTGSLATGDYTRAAVRMAEEHSEFVVGFISGSRVSMKPEFLHLTPGVQLEAGGDNLGQQYNSPQEVIGKRGSDIIIVGRGIISAADRLEAAEMYRKAAWEAYLSRLGV
notes: Human UMP synthase (UMPS) with the OMPDC active site mutation D312N; same construct as the wildtype; as m1 with the mutation; also called OMPDC mutant; source: E. coli BL21(DE3), purified in a similar fashion as WT; not shown: His6, N-terminal, cleaved; MBP, N-terminal, cleaved
- binding result [1]: binds

B3: HsUMPS E123Q (OPRT active site mutant) (enzyme, human, UniProt P11172 1-480, looked up)
chain: MAVARAALGPLVTGLYDVQAFKFGDFVLKSGLSSPIYIDLRGIVSRPRLLSQVADILFQTAQNAGISFDTVCGVPYTALPLATVICSTNQIPMLIRRKETKDYGTKRLVEGTINPGETCLIIQDVVTSGSSVLETVEVLQKEGLKVTDAIVLLDREQGGKDKLQAHGIRLHSVCTLSKMLEILEQQKKVDAETVGRVKRFIQENVFVAANHNGSPLSIKEAPKELSFGARAELPRIHPVASKLLRLMQKKETNLCLSADVSLARELLQLADALGPSICMLKTHVDILNDFTLDVMKELITLAKCHEFLIFEDRKFADIGNTVKKQYEGGIFKIASWADLVNAHVVPGSGVVKGLQEVGLPLHRGCLLIAEMSSTGSLATGDYTRAAVRMAEEHSEFVVGFISGSRVSMKPEFLHLTPGVQLEAGGDNLGQQYNSPQEVIGKRGSDIIIVGRGIISAADRLEAAEMYRKAAWEAYLSRLGV
notes: Human UMP synthase (UMPS) with the OPRT active site mutation E123Q; same construct as the wildtype; as m1 with the mutation; also called E123Q OPRT mutant; source: E. coli BL21(DE3), purified in a similar fashion as WT; not shown: His6, N-terminal, cleaved; MBP, N-terminal, cleaved
- stoichiometry N [2]: 2

B4: HsUMPS S87T/Q90E (OPRT dimerization-deficient mutant) (enzyme, human, UniProt P11172 1-480, looked up)
chain: MAVARAALGPLVTGLYDVQAFKFGDFVLKSGLSSPIYIDLRGIVSRPRLLSQVADILFQTAQNAGISFDTVCGVPYTALPLATVICTTNEIPMLIRRKETKDYGTKRLVEGTINPGETCLIIEDVVTSGSSVLETVEVLQKEGLKVTDAIVLLDREQGGKDKLQAHGIRLHSVCTLSKMLEILEQQKKVDAETVGRVKRFIQENVFVAANHNGSPLSIKEAPKELSFGARAELPRIHPVASKLLRLMQKKETNLCLSADVSLARELLQLADALGPSICMLKTHVDILNDFTLDVMKELITLAKCHEFLIFEDRKFADIGNTVKKQYEGGIFKIASWADLVNAHVVPGSGVVKGLQEVGLPLHRGCLLIAEMSSTGSLATGDYTRAAVRMAEEHSEFVVGFISGSRVSMKPEFLHLTPGVQLEAGGDNLGQQYNSPQEVIGKRGSDIIIVGRGIISAADRLEAAEMYRKAAWEAYLSRLGV
notes: Human UMP synthase (UMPS) with the double mutation S87T/Q90E at the native OPRT dimer interface; same construct as the wildtype; as m1 with the mutations; also called oligomerization-deficient mutant; source: E. coli BL21(DE3), purified in a similar fashion as WT; not shown: His6, N-terminal, cleaved; MBP, N-terminal, cleaved
- stoichiometry N [3]: 2
